Laboratory results: patent publication WO2013139956A1 (dated 2013)
Ends that are not written are not given here. * marks the point of attachment. Biotin = O=C1N[C@H]2[C@H](CS[C@H]2CCCCC(=O)*)N1

B1: huMc3 antibody (antibody, V domains shown)
VH: EVQLVQSGAEVKKPGASVKVSCKASGYSFTGYTMHWVKQSPGMNLEWIGLINPYNGGTVYNQKFQDKATLTVDKSTSTAYMELSSLRSEDTAVYFCARRWRYTMDYWGQGTLVTVSS
VL: DIVMTQSPDSLAVSLGERATITCKASQDVSIGVAWYQQKPGQSPKLLIYSASSRYTGVPDRFSGSGSGTDFTLTISSLQAEDVAVYYCQQHYTSPFTFGSGTKVEIK
B2: anti-lactadherin antibody 346B6 (antibody, IgG1, V domains shown)
VH: EFQLQQSGPELVKPGASVRISCKASGYSFTDYNMNWVKQSDGKTLEWIGVINPDYGTTNNNQRFRGKATLTLDLSSSTAYMQLNSLTSEDSAVYYCARGGDYGAGYALDYWGQGTSVTVSS
VL: QIVLTQSPAIMSASPGEKVTMTCSASSSVSYMYWYQQKPGSSPRLLIYDTSNLASGVPVRFSGSGSGTSYSLTISRMEAEDAATYYCQQWSSYPPTFGAGTKLELKR
notes: VH identical to that of 311A7; also called hybridoma 346B6; LMBP 9490CB
B3: chimeric 311A7 antibody (antibody, V domains shown)
VH: B2 VH
VL: QIVLTQSPAIMSASPGEKVTITCSASSSVSYMYWFQQKPGTSPKLWIYSTSNLASGVPARFSGSGSGTSYSLTISRMEAEDAATYYCQQRSSYPRTFGGGTKLEIKR
B4: anti-lactadherin antibody 311A7 (antibody, IgG1, V domains shown)
VH: B2 VH
VL: B3 VL
notes: also called murine 311A7; hybridoma 311A7
B5: anti-lactadherin antibody 215A9 (antibody, IgG1, V domains shown)
VH: QVSLKESGPGILQSSQTLSLTCSFSGFSLSTSGMGVSWIRQPSGKGLEWLAHIYWNDDKRYNPSLKSRLTISKDTSRDQVFLKITSVDTADTATYFCARRPRFYRDYDEGIDFWGQGTTLTVSS
VL: QAVVTQESALTTSPGETVTLTCRSSTGAVTTNNYANWVQEKPDHLFTGLIGGTNNRTPGVPARFSGSLIGDKAALTITGAQTEDEAIYFCALWYSNLWVFGGGTKLTVLG
notes: also called 2154A9; hybridoma 215A9
B6: anti-lactadherin antibody 399A12 (antibody, V domains shown)
VH: QVTLKESGPGVLQSSQTLSLTCSFSGFSLSTSGLGVIWIRQPSGAGLEWLAQIYWDDNKRYNPSLKSRLTISKDTSRNQVFLKITPVDTADTATYYCARRTFYDYDEGFYAMDYWGQGTSVTVSS
VL: DIQMTQTTSSLSASLGDRVTITCRASQDISNYLNWYQQKPDGTIKLLIYYASRLHSGVPSRFSGSGSGTDYSLTISNLEQEDIATYFCQQGNTLPLTFGAGTKLELKR
notes: Murine monoclonal, kappa light chain; Variable regions identical to those of 416H9; also called hybridoma 399A12; LMBP 9491CB
B7: anti-lactadherin antibody 416H9 (antibody, IgG1, V domains shown)
VH: B6 VH
VL: B6 VL
notes: also called hybridoma 416H9; LMBP 9492CB

What follows are binders tested against T1, human lactadherin (human, UniProt Q08431 24-387) (assay: cell-based or functional assay).
T1 sequence (looked up): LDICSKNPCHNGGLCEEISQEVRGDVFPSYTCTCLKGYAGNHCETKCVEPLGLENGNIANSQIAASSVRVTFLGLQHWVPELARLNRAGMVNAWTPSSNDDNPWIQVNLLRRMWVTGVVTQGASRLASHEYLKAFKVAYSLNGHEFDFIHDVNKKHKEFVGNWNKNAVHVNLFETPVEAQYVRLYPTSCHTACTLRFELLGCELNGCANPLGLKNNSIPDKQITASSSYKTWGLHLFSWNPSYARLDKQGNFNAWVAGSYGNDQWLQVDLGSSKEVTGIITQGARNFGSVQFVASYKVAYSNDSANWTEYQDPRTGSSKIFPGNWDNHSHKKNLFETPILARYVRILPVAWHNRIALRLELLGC

Row | Binder | IC50 (nM), inhibition of cell adhesion to human lactadherin | inhibition of SKOV-3 cell adhesion to coated human lactadherin, antibody at 5 ug/mL | decrease of SKOV-3 cell migration towards lactadherin, antibody at 5 ug/mL
1 | B1 | 6.48 nM | > 70% | –
2 | B2 | – | 25% | –
3 | B3 | 7.36 nM | – | –
4 | B4 | 7.36 nM | > 70% | > 80%
5 | B5 | – | > 70% | –
6 | B6 | – | > 70% | > 80%
7 | B7 | – | > 70% | > 80%

Biological target: T2, peptide EISQEVRADVFPSY (SEQ ID NO:75), N-terminally biotinylated (human)
T2 peptide: Biotin-EISQEVRADVFPSY
Test: ELISA, biotin-peptide on neutravidin plate, antibody 1 ug/ml

Row | Binder | absorbance 450 nm minus 540 nm
8 | B1 | 0.03 absorbance
9 | B2 | 0.01 absorbance
10 | B4 | 0.01 absorbance

Biological target: T3, peptide EISQEVAADVFPSY (SEQ ID NO:77), N-terminally biotinylated (human)
T3 peptide: Biotin-EISQEVAADVFPSY
Test: as above

Row | Binder | absorbance 450 nm minus 540 nm
11 | B1 | 0.05 absorbance
12 | B2 | 0.01 absorbance
13 | B4 | 0.01 absorbance

Biological target: T4, peptide VFPSYTCTCLKGYA (SEQ ID NO:86), N-terminally biotinylated (human, cysteine pairing not given here)
T4 peptide: Biotin-VFPSYTCTCLKGYA
Test: as above

Row | Binder | absorbance 450 nm minus 540 nm
14 | B1 | 0.07 absorbance
15 | B2 | 0.03 absorbance
16 | B4 | 0.02 absorbance
17 | B5 | 0.05 absorbance
18 | B6 | 0.03 absorbance
19 | B7 | 0.03 absorbance

Biological target: T5, peptide CHNGGLCEEISQEV (SEQ ID NO:83), N-terminally biotinylated (human, cysteine pairing not given here)
T5 peptide: Biotin-CHNGGLCEEISQEV
Test: as above

Row | Binder | absorbance 450 nm minus 540 nm
20 | B1 | 0.09 absorbance
21 | B2 | 0.02 absorbance
22 | B4 | 0.02 absorbance
23 | B5 | 0.03 absorbance
24 | B6 | 0.02 absorbance
25 | B7 | 0.03 absorbance

Biological target: T6, peptide EISQEVAGAVFPSY (SEQ ID NO:79), N-terminally biotinylated (human)
T6 peptide: Biotin-EISQEVAGAVFPSY
Test: as above

Row | Binder | absorbance 450 nm minus 540 nm
26 | B1 | 0.04 absorbance
27 | B2 | 0.07 absorbance
28 | B4 | 0.05 absorbance
29 | B5 | 0.03 absorbance
30 | B6 | 0.03 absorbance
31 | B7 | 0.05 absorbance

Biological target: T7, peptide GDVFPSYTCTCLKG (SEQ ID NO:84), N-terminally biotinylated (human, cysteine pairing not given here)
T7 construct: Human lactadherin 14-mer with part of the RGD domain at the N-terminus
T7 peptide: Biotin-GDVFPSYTCTCLKG
Test: as above

Row | Binder | absorbance 450 nm minus 540 nm
32 | B1 | 0.08 absorbance
33 | B2 | 0.02 absorbance
34 | B4 | 0.02 absorbance
35 | B5 | 0.04 absorbance
36 | B6 | 0.03 absorbance
37 | B7 | 0.03 absorbance

Biological target: T8, peptide EISQEVRAAVFPSY (SEQ ID NO:78), N-terminally biotinylated (human)
T8 peptide: Biotin-EISQEVRAAVFPSY
Test: as above

Row | Binder | absorbance 450 nm minus 540 nm
38 | B1 | 0.06 absorbance
39 | B2 | 0.02 absorbance
40 | B4 | 0.02 absorbance
41 | B5 | 0.02 absorbance
42 | B6 | 0.02 absorbance
43 | B7 | 0.02 absorbance

Biological target: T9, peptide DVFPSYTCTCLKGY (SEQ ID NO:85), N-terminally biotinylated (human, cysteine pairing not given here)
T9 construct: Human lactadherin 14-mer with part of the RGD domain at the N-terminus
T9 peptide: Biotin-DVFPSYTCTCLKGY
Test: as above

Row | Binder | absorbance 450 nm minus 540 nm
44 | B1 | 0.09 absorbance
45 | B2 | 0.03 absorbance
46 | B4 | 0.02 absorbance
47 | B5 | 0.04 absorbance
48 | B6 | 0.04 absorbance
49 | B7 | 0.03 absorbance

Biological target: T10, peptide EISQEVAAAVFPSY (SEQ ID NO:80), N-terminally biotinylated (human)
T10 peptide: Biotin-EISQEVAAAVFPSY
Test: as above

Row | Binder | absorbance 450 nm minus 540 nm
50 | B1 | 0.04 absorbance
51 | B2 | 0.01 absorbance
52 | B4 | 0.02 absorbance
53 | B5 | 0.02 absorbance
54 | B6 | 0.02 absorbance
55 | B7 | 0.02 absorbance

Biological target: T11, peptide NGGLCEEISQEVRG (SEQ ID NO:81), N-terminally biotinylated (human)
T11 construct: Human lactadherin 14-mer with part of the RGD domain at the C-terminus
T11 peptide: Biotin-NGGLCEEISQEVRG
Test: as above

Row | Binder | absorbance 450 nm minus 540 nm
56 | B1 | 0.09 absorbance
57 | B2 | 0.02 absorbance
58 | B4 | 0.01 absorbance
59 | B5 | 0.03 absorbance
60 | B6 | 0.03 absorbance
61 | B7 | 0.02 absorbance

Biological target: T12, peptide EISQEVRGAVFPSY (SEQ ID NO:76), N-terminally biotinylated (human)
T12 peptide: Biotin-EISQEVRGAVFPSY
Test: as above

Row | Binder | absorbance 450 nm minus 540 nm
62 | B1 | 0.06 absorbance
63 | B2 | 0.02 absorbance
64 | B4 | 0.01 absorbance
65 | B5 | 0.1 absorbance
66 | B6 | 0.03 absorbance
67 | B7 | 0.02 absorbance

Biological target: T13, peptide HNGGLCEEISQEVR (SEQ ID NO:82), N-terminally biotinylated (human)
T13 construct: Human lactadherin 14-mer with part of the RGD domain at the C-terminus
T13 peptide: Biotin-HNGGLCEEISQEVR
Test: as above

Row | Binder | absorbance 450 nm minus 540 nm
68 | B1 | 0.08 absorbance
69 | B2 | 0.02 absorbance
70 | B4 | 0.02 absorbance
71 | B5 | 0.03 absorbance
72 | B6 | 0.02 absorbance
73 | B7 | 0.03 absorbance

Biological target: T14, peptide EISQEVAGDVFPSY (SEQ ID NO:74), N-terminally biotinylated (human)
T14 peptide: Biotin-EISQEVAGDVFPSY
Test: as above

Row | Binder | absorbance 450 nm minus 540 nm
74 | B1 | 0.04 absorbance
75 | B2 | 0.02 absorbance
76 | B4 | 0.02 absorbance

Each binder was assayed against T15, peptide … (SEQ ID NO:77), N-terminally biotinylated (human) in the same assay as above.
T15 sequence (peptide, N-terminally biotinylated): EISQEVAADVFPSY

Row | Binder | absorbance 450 nm minus 540 nm
77 | B5 | 0.23 absorbance
78 | B6 | 0.2 absorbance
79 | B7 | 0.19 absorbance

These binders were tested against T16, peptide … (SEQ ID NO:75), N-terminally biotinylated (human) in the same assay as above.
T16 sequence (peptide, N-terminally biotinylated): EISQEVRADVFPSY

Row | Binder | absorbance 450 nm minus 540 nm
80 | B5 | 0.74 absorbance
81 | B6 | 0.69 absorbance
82 | B7 | 0.7 absorbance

These binders were tested against T17, peptide … (SEQ ID NO:51), N-terminally biotinylated (human) in the same assay as above.
T17 sequence (peptide, N-terminally biotinylated): EISQEVRGDVFPSY

Row | Binder | absorbance 450 nm minus 540 nm
83 | B2 | 1 absorbance
84 | B4 | 1.47 absorbance
85 | B5 | 1.1 absorbance
86 | B6 | 1.62 absorbance
87 | B7 | 1.76 absorbance

The binders below were run against T18, peptide … (SEQ ID NO:74), N-terminally biotinylated (human) in the same assay as above.
T18 sequence (peptide, N-terminally biotinylated): EISQEVAGDVFPSY

Row | Binder | absorbance 450 nm minus 540 nm
88 | B5 | 0.52 absorbance
89 | B6 | 0.24 absorbance
90 | B7 | 0.25 absorbance
